Assay results taken from patent US20200277339A1.

Target: recombinant purified fragment of TLR5 ectodomain of fish origin (fish)
Experiment: competition fluorescence polarization, cell-free

Work on CBLB502 (ligand) yielded a Relative EC50 vs 502, Binding (FP) of 1 fold vs 502.
